The values below come from patent publication US20190153065A1 (ALBERT EINSTEIN COLLEGE OF MEDICINE, published 2019).

For orientation: EC50 means the concentration that produces a half-maximal response. Low readings indicate greater potency, high ones weaker potency.

In test [1] the target is T1, wild-type mouse PD-L1 mCherry (full-length mouse PD-L1 with C-terminal mCherry, on HEK 293 cells) (mouse, UniProt Q9EP73 19-290).
T1 construct: whole, on cells; also called wild type PD-L1; mPD-L1 mCherry; not shown: C-terminal mCherry (Clontech N1 mCherry vector)
T1 sequence (Q9EP73 19-290): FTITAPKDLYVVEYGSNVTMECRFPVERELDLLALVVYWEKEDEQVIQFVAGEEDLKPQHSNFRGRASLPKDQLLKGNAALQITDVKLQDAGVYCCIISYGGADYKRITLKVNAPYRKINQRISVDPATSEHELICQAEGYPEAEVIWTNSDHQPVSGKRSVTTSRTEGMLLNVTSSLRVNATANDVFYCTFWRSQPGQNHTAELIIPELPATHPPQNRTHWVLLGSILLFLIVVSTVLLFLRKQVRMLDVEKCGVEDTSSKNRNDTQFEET
Kind of test: cell microarray challenged with Fc fusion protein.

In test [2] the target is T2, PD-L1 mutant G119R (mouse PD-L1-mCherry fusion) (mouse, UniProt Q9EP73 19-290).
T2 construct: whole, on cells; not shown: C-terminal mCherry (Clontech N1 mCherry vector)
T2 sequence (Q9EP73 19-290 G119R): as the sequence (Q9EP73 19-290) above, with G101R counted along it
The test is described as follows: microbead FACS binding assay: protein A microbeads loaded with Fc fusion, HEK 293 cells displaying the PD-L1-mCherry mutant. The procedure:
(§1) PD-L1 mCherry mutant constructs were transiently transfected into HEK 293S cells and subsequently challenged with protein A microbeads (Milltenyi) pre-saturated with a 4:1 mixture of PD-1 Fc-fusion and FITC-Fc protein. A total Fc protein to bead ratio of 5 ug/10 uL microbeads was utilized on the basis of a previous report from Genentech (16). The FITC-Fc served to make the otherwise non-fluorescent microbeads show green fluorescence. For each titration experiment, 500 μL of protein A microbeads were loaded with a mixture of 10 μg fluorescein isothiocyanate (FITC)-Fc and 40 μg of either PD-1-Fc or B7-1-Fc protein in a total volume of 5 mL 1× phosphate buffered saline (PBS). The beads were incubated overnight (˜16 hours) at 4° C. Loaded beads were stored for up to two weeks prior to use. Initial experiments determined that 75 μL of the loaded beads were sufficient to saturate 150,000 cells transfected with wild type PD-L1, (transfection efficiency being consistently 60-70%). For titration experiments, sets of wild type and mutant PD-L1 constructs were transfected in 24-well tissue culture plates containing 1 mL of suspension HEK-293 cells. Three days post transfection cells were counted, diluted to 1×10⁶ cell/mL with 1×PBS with 2% BSA. 150K cells (150 μL) were transferred to Eppendorf tubes, and 75 μL of loaded microbeads added along with an additional 100 μL 1×PBS with 2% bovine serum albumin (BSA). Reactions were mixed end over end for 1 hour at 4° C., 4′,6-diamidino-2-phenylindole (DAPI) was added and samples were immediately analyzed by flow cytometry on a BD Aria III cytometer. Data were analyzed by gating first for live cells (DAPI negative) then for mCherry positive cells (PD-L1 expression). The percentage of mCherry positive cells that were FITC positive (microbeads bound) was used as “percent bound”. For each experiment, the percent bound was normalized to wild type binding.
(§2) These cells were probed by flow cytometry for their ability to bind either FITC-loaded microbeads decorated with wild type PD-1 Ig-fusion or wild type B7-1 Ig-fusion proteins (FIG. 7B).

Test [3] has as its target T3, PD-L1 mutant D122R (mouse PD-L1-mCherry fusion) (mouse, UniProt Q9EP73 19-290).
T3 construct: whole, on cells; not shown: C-terminal mCherry (Clontech N1 mCherry vector)
The description is as above. As for the experimental part: as §1, §2

Test [4] deals with T4, PD-L1 mutant A121D (mouse PD-L1-mCherry fusion) (mouse, UniProt Q9EP73 19-290).
T4 construct: whole, on cells; not shown: C-terminal mCherry (Clontech N1 mCherry vector)
T4 sequence (Q9EP73 19-290 A121D): as the sequence (Q9EP73 19-290) above, with A103D counted along it
Described as above. As for the experimental part:
as §1, §2

For test [5], the target named is T5, PD-L1 mutant I115D (mouse PD-L1-mCherry fusion) (mouse, UniProt Q9EP73 19-290).
T5 construct: whole, on cells; not shown: C-terminal mCherry (Clontech N1 mCherry vector)
T5 sequence (Q9EP73 19-290 I115D): as the sequence (Q9EP73 19-290) above, with I97D counted along it
The test is described as above. As for the experimental part: as §1, §2

Test [6] concerns the target T6, PD-L1 mutant I116R (mouse PD-L1-mCherry fusion) (mouse, UniProt Q9EP73 19-290).
T6 construct: whole, on cells; not shown: C-terminal mCherry (Clontech N1 mCherry vector)
The test is described as above. The procedure:
as §1, §2

Test [7] has as its target T7, PD-L1 mutant R125D (mouse PD-L1-mCherry fusion) (mouse, UniProt Q9EP73 19-290).
T7 construct: whole, on cells; not shown: C-terminal mCherry (Clontech N1 mCherry vector)
Described as above. The procedure: as §1, §2

The target of test [8] is T8, PD-L1 mutant G120R (mouse PD-L1-mCherry fusion) (mouse, UniProt Q9EP73 19-290).
T8 construct: whole, on cells; not shown: C-terminal mCherry (Clontech N1 mCherry vector)
T8 sequence (Q9EP73 19-290 G120R): as the sequence (Q9EP73 19-290) above, with G102R counted along it
The description is as above. As for the experimental part: as §1, §2

The target in test [9] is T9, PD-L1 mutant L53D (mouse PD-L1-mCherry fusion) (mouse, UniProt Q9EP73 19-290).
T9 construct: whole, on cells; not shown: C-terminal mCherry (Clontech N1 mCherry vector)
T9 sequence (Q9EP73 19-290 L53D): as the sequence (Q9EP73 19-290) above, with L35D counted along it
Described as above. As for the experimental part:
as §1, §2

Test [10] addresses T10, PD-L1 mutant K124A (mouse PD-L1-mCherry fusion) (mouse, UniProt Q9EP73 19-290).
T10 construct: whole, on cells; not shown: C-terminal mCherry (Clontech N1 mCherry vector)
The description is as above. As for the experimental part:
as §1, §2

The target of test [11] is T11, PD-L1 mutant G120A (mouse PD-L1-mCherry fusion) (mouse, UniProt Q9EP73 19-290).
T11 construct: whole, on cells; not shown: C-terminal mCherry (Clontech N1 mCherry vector)
T11 sequence (Q9EP73 19-290 G120A): as the sequence (Q9EP73 19-290) above, with G102A counted along it
The description is as above. The procedure:
as §1, §2

For test [12], the target named is T12, PD-L1 mutant R125A (mouse PD-L1-mCherry fusion) (mouse, UniProt Q9EP73 19-290).
T12 construct: whole, on cells; not shown: C-terminal mCherry (Clontech N1 mCherry vector)
T12 sequence (Q9EP73 19-290 R125A): as the sequence (Q9EP73 19-290) above, with R107A counted along it
Described as above. As for the experimental part:
as §1, §2

Test [13] has as its target T13, PD-L1 mutant K124D (mouse PD-L1-mCherry fusion) (mouse, UniProt Q9EP73 19-290).
T13 construct: whole, on cells; not shown: C-terminal mCherry (Clontech N1 mCherry vector)
The description is as above. As for the experimental part: as §1, §2

Test [14] addresses T14, PD-L1 mutant A121R (mouse PD-L1-mCherry fusion) (mouse, UniProt Q9EP73 19-290).
T14 construct: whole, on cells; not shown: C-terminal mCherry (Clontech N1 mCherry vector)
The description is as above. As for the experimental part:
as §1, §2

The target of test [15] is T15, PD-L1 mutant Y123R (mouse PD-L1-mCherry fusion) (mouse, UniProt Q9EP73 19-290).
T15 construct: whole, on cells; not shown: C-terminal mCherry (Clontech N1 mCherry vector)
T15 sequence (Q9EP73 19-290 Y123R): as the sequence (Q9EP73 19-290) above, with Y105R counted along it
Described as above. As for the experimental part:
as §1, §2

For test [16], the target named is T16, PD-L1 mutant Y123A (mouse PD-L1-mCherry fusion) (mouse, UniProt Q9EP73 19-290).
T16 construct: whole, on cells; not shown: C-terminal mCherry (Clontech N1 mCherry vector)
T16 sequence (Q9EP73 19-290 Y123A): as the sequence (Q9EP73 19-290) above, with Y105A counted along it
Described as above. As for the experimental part:
as §1, §2

For test [17], the target named is T17, PD-L1 mutant L53R (mouse PD-L1-mCherry fusion) (mouse, UniProt Q9EP73 19-290).
T17 construct: whole, on cells; not shown: C-terminal mCherry (Clontech N1 mCherry vector)
T17 sequence (Q9EP73 19-290 L53R): as the sequence (Q9EP73 19-290) above, with L35R counted along it
Described as above. As for the experimental part: as §1, §2

Test [18] deals with T18, PD-L1 mutant D122A (mouse PD-L1-mCherry fusion) (mouse, UniProt Q9EP73 19-290).
T18 construct: whole, on cells; not shown: C-terminal mCherry (Clontech N1 mCherry vector)
T18 sequence (Q9EP73 19-290 D122A): as the sequence (Q9EP73 19-290) above, with D104A counted along it
The test is described as above. As for the experimental part: as §1, §2

The target in test [19] is T1, wild-type mouse PD-L1 mCherry …. Kind of test: FACS competition: mPD-1 mIgG2a titrated (0.01-250 nM dimer) against 5 nM mB7-1 hIgG1 (competitor) on HEK 293 cells expressing mPD-L1 mCherry; one-site competition fit, three experiments. The text has this: A mB7-1 hIgG1 Fc fusion construct was cloned which used the same erythropoietin (EPO) leader, mB7-1 ecto domain boundaries and linker sequence as the original mIgG2a construct described above. This construct was transiently expressed in HEK 293 cells and purified as described above for the other Fc fusion proteins used. For the completion experiment, HEK 293 suspension cells were transiently transfected with wild-type mPD-L1 mCherry. Three days post transfection transfected cells were counted and diluted to 1×10⁶ cells/mL. B7-1 hIgG1 fusion protein was added to 100,000 transfected cells at a final concentration of 5 nM dimer, in either the absence or presence of increasing concentrations of PD-1 mIgG2a protein (0.01-250 nM dimer). Parallel experiments were carried out in which purified mIgG2a isotype control was titrated at equivalent molar concentrations. Protein binding was carried out at 22° C. shaking at 900 rpm on a 96-well plate shaker for 1 hour. […] Cells were subsequently washed two more times with 1×PBS with 0.2% BSA. […] Competition data was normalized to 5 nM B7-1 binding in the absence of mPD-1 and plotted as a function of log [mPD-1]. Average data from three independent experiments was fit using a one-site competition model equation Y=min+(max−min)/(1+10^{x-log EC50}).
A) Cartoon depiction of the competition assay. […]

T6 sequence (Q9EP73 19-290 I116R): as the sequence (Q9EP73 19-290) above, with I98R counted along it
T14 sequence (Q9EP73 19-290 A121R): as the sequence (Q9EP73 19-290) above, with A103R counted along it
T3 sequence (Q9EP73 19-290 D122R): as the sequence (Q9EP73 19-290) above, with D104R counted along it
T7 sequence (Q9EP73 19-290 R125D): as the sequence (Q9EP73 19-290) above, with R107D counted along it
T13 sequence (Q9EP73 19-290 K124D): as the sequence (Q9EP73 19-290) above, with K106D counted along it
T10 sequence (Q9EP73 19-290 K124A): as the sequence (Q9EP73 19-290) above, with K106A counted along it

B1: wild-type mB7-1 Fc (residues D37-K245, mIgG2a-10×His) (Fc fusion)
chain: DVDEQLSKSVKDKVLLPCRYNSPHEDESEDRIYWQKHDKVVLSVIAGKLKVWPEYKNRTLYDNTTYSLIILGLVLSDRGTYSCVVQKKERGTYEVKHLALVKLSIKADFSTPNITESGNPSADTKRITCFASGGFPKPRFSWLENGRELPGINTTISQDPESELYTISSQLDFNTTRNHTIKCLIKYGDAHVSEDFTWEKPPEDPPDSK
modifications: C-terminal mIgG2a Fc-10×His (dimerising carrier), not in the letters
notes: In the microbead assay it was loaded on protein A microbeads; also called B7-1 Fc-fusion; B7-1 Ig-fusion; not shown: the linker between ectodomain and Fc, the mouse IgG2a Fc and the 10xHis tag behind it
B1: the binding result in test [1] is given as “binds”; in test [2] it was “no binding”; in [3], “no binding”; in [4], “no binding”; in test [5] it was “no binding”; in test [6], “no binding”. Also, the binding result in [7] is recorded as “binds”; in test [8], “no binding”; in test [9], “no binding”; in test [10], “binds”; in test [11], “no binding”; in [12], “binds”. In addition, the binding result in test [13] is “binds”; in test [14] it was “no binding”; in test [15], “binds”; in [16], “binds”; in [17], “no binding”; in test [18], “binds”.

B2: wild-type mPD-1 Fc (residues L25-Q167, mIgG2a-10×His) (Fc fusion, mouse, not shown: a dimerising Fc or GST)
chain (part 1 of 2): LEVPNGPWRSLTFYPAWLTVSEGANATFTCSLSNWSEDLMLNWNRLSPSNQTEKQAAFCNGLSQPVQDARFQIIQLPNRHDFHMNILDTRRNDSGIYLCGAISLHPKAKIEESPGAELVVTERILETSTRYPSPSPKPEGRFQ
chain (part 2 of 2): HHHHHHHHHH
notes: range 25-167; In the microbead assay it was loaded on protein A microbeads; also called PD-1 Fc-fusion; PD-1 Ig-fusion
On to B2, for which the binding result in test [2], in test [3], in test [4], in test [5], in test [6] and in test [8] was “no binding” in each case. Further, the binding result in test [9], in test [11], in test [14] and in [17] was “no binding” each time. This molecule had an EC50 in [19] of 8.3 nM.
